Assay [1] deals with T1, human CD7 on cells (human, UniProt P09564 26-240).
T1 construct: whole, on cells; Target of the FACS and cell capture values and of the kill assays on CD7 single positive cells; also called CD7+ cells; Jurkat (CD33-/CD7+)
T1 sequence (looked up): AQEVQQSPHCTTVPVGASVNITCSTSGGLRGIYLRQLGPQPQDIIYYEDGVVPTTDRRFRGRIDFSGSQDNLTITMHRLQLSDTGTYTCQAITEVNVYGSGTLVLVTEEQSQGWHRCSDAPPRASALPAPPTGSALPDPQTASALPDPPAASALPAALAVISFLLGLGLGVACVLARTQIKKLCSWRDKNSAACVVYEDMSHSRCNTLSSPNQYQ
Description: FACS; reference 7-PP-1 WT.

The target in assay [2] is T1, human CD7 on cells. Put plainly: FACS; cells not named.
Assay [3] has as its target T2, human CD7 (human, UniProt P09564 26-180, limits assumed).
T2 construct: The construct is not described
T2 sequence (looked up): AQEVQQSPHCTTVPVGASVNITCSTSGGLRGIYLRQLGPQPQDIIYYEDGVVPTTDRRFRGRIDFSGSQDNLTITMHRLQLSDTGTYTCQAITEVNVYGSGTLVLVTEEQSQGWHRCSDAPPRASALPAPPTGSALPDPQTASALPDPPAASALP
Description: SPR.

Assay [4] addresses T2, human CD7. Description: SPR; reference 7-PP-1 WT.
In assay [5] the target is T2, human CD7. Put plainly: SPR; reference 7-AA-WT.

B1: 7-PP-4 (Fab, V domains shown)
VH: QVQLQESGAELVKPGASVKLSCKASGYTFTSYWMHWVKQRPGQGLEWIGKINPSNGRTNYNEKFKSKATLTVDKSSSTAYMQLSSLTSEDSAVYYCARGGVTYDLYYYALDYWGQGTTVTVSS
VL: DIELTQSPATLSVTPGDSVSLSCRASQSISNNLHWYQQKSHESPRLLIKSASQSISGIPSRFSGSGSGTDFTLSINSVETEDFGMYFCQQSNSWPYTFGGGTKLEIKR
In the case of B1, the “FACS fold reduction compared to PP WT” value in the assay with human CD7 on cells [1] is 3740 fold. In addition, the FACS binding in the assay with human CD7 on cells [2] is 1990.

B2: 7-PP-9 (Fab, V domains shown)
VH: QVQLQESGAELVKPGASVKLSCKASGYTFTSYWMHWVKQRPGQGLEWIGKINPSNGRTNYNEKFKSKATLTVDKSSSTAYMQLSSLTSEDSAVYYCARGGVTYDLYYAALDYWGQGTTVTVSS
VL: DIELTQSPATLSVTPGDSVSLSCRASQSISNNLHWYQQKSHESPRLLIKSASQSISGIPSRFSGSGSGTDFTLSINSVETEDFGMYFCQQSNSWPYTFGGGTKLEIKR
B2: the “FACS fold reduction compared to PP WT” value with human CD7 on cells [1] is 517 fold. The same molecule gave an FACS binding in the assay with human CD7 on cells [2] of 275.

B3: CD7-PP-8 CD7 binding arm (Fab, V domains shown)
VH: QVQLQESGAELVKPGASVKLSCKASGYTFTSYWMHWVKQRPGQGLEWIGKINPSNGKTNYNEKFKSKATLTVDKSSSTAYMQLSSLTSEDSAVYYCARGGVYYDLYYAALDYWGQGTTVTVSS
VL: DIELTQSPATLSVTPGDSVSLSCRASQSISNNLHWYQQKSHESPRLLIKSASQSISGIPSRFSGSGSGTDFTLSINSVETEDFGMYFCQQSNSWPYTFGGGTKLEIKR
Consider B3, for which binding in the assay with human CD7 [3] was put at a Kd of 229 nM. The “FACS fold reduction compared to PP WT” value in the assay with human CD7 on cells [1] was 182 fold. For the same molecule, in the assay with human CD7 [4], the “Fold Reduction in binding affinity compared to PP WT (Kd)” value (from here on “Fold Reduction … to PP WT (Kd)”) amounted to 64.3 fold. Also, in the assay with human CD7 [5], the “Fold Reduction in binding affinity compared to WT (Kd)” value (“Fold Reduction … to WT (Kd)” for short) worked out at 87.2 fold. Further, the FACS binding in the assay with human CD7 on cells [2] was determined as 96.8.

B4: CD7-PP-3 CD7 binding arm (Fab, V domains shown)
VH: QVQLQESGAELVKPGASVKLSCKASGYTFTSYWMHWVKQRPGQGLEWIGKINPSNGKTNYNEKFKSKATLTVDKSSSTAYMQLSSLTSEDSAVYYCARGGVYYDLYYYALDYWGQGTTVTVSS
VL: DIELTQSPATLSVTPGDSVSLSCRASQSISNNLHWYQQKSHESPRLLIKSASQSISGIPSRFSGSGSGTDFTLSINSVETEDFGMYFCQQSNSWPYTFGGGTKLEIKR
notes: Heavy chain Arg57Lys
The molecule B4 had a Kd in the assay with human CD7 [3] of 32.5 nM. In addition, the “FACS fold reduction compared to PP WT” value with human CD7 on cells [1] turned out to be 24.5 fold. Further, in the assay with human CD7 [4], the “Fold Reduction … to PP WT (Kd)” value was determined as 9.13 fold. Further, the “Fold Reduction … to WT (Kd)” value in the assay with human CD7 [5] was found to be 12.4 fold. In addition, in the assay with human CD7 on cells [2], the FACS binding stood at 13.

B5: 7-PP-11 (Fab, V domains shown)
VH: QVQLQESGAELVKPGASVKLSCKASGYTFTSYWMHWVKQRPGQGLEWIGKINPSNGRTNYNEKFKSKATLTVDKSSSTAYMQLSSLTSEDSAVYYCARGGVYYALYYAALDYWGQGTTVTVSS
VL: DIELTQSPATLSVTPGDSVSLSCRASQSISNNLHWYQQKSHESPRLLIKSASQSISGIPSRFSGSGSGTDFTLSINSVETEDFGMYFCQQSNSWPYTFGGGTKLEIKR
B5 registered a Kd with human CD7 [3] of 246 nM. In addition, the “FACS fold reduction compared to PP WT” value in the assay with human CD7 on cells [1] stood at 105 fold. In addition, the “Fold Reduction … to PP WT (Kd)” value with human CD7 [4] was found to be 69.1 fold. Besides, the “Fold Reduction … to WT (Kd)” value in the assay with human CD7 [5] is 93.7 fold. For the same molecule, the FACS binding with human CD7 on cells [2] is 55.9.

B6: 7-PP-5 (Fab, V domains shown)
VH: QVQLQESGAELVKPGASVKLSCKASGYTFTSYWMHWVKQRPGQGLEWIGKINPSNGRTNYNEKFKSKATLTVDKSSSTAYMQLSSLTSEDSAVYYCARGGVYYDGYYYALDYWGQGTTVTVSS
VL: DIELTQSPATLSVTPGDSVSLSCRASQSISNNLHWYQQKSHESPRLLIKSASQSISGIPSRFSGSGSGTDFTLSINSVETEDFGMYFCQQSNSWPYTFGGGTKLEIKR
Consider B6, for which the “FACS fold reduction compared to PP WT” value with human CD7 on cells [1] stood at 503 fold. This molecule also came in with an FACS binding with human CD7 on cells [2] of 268.

B7: CD7-PP-12 CD7 binding arm (Fab, V domains shown)
VH: QVQLQESGAELVKPGASVKLSCKASGYTFTSYWMHWVKQRPGQGLEWIGKINPSNGRTNYNEKFKSKATLTVDKSSSTAYMQLSSLTSEDSAVYYCARGGVYYDLYYYALDYWGQGTTVTVSS
VL: DIELTQSPATLSVTPGDSVSLSCRASASISNNLHWYQQKSHESPRLLIKSASQSISGIPSRFSGSGSGTDFTLSINSVETEDFGMYFCQQSNSWPYTFGGGTKLEIKR
notes: Light chain Gln27Ala
As for B7, the Kd in the assay with human CD7 [3] was 5.46 nM. The “FACS fold reduction compared to PP WT” value with human CD7 on cells [1] stood at 0.004 fold. Besides, in the assay with human CD7 [4], the “Fold Reduction … to PP WT (Kd)” value came out at 1.53 fold. In the assay with human CD7 [5], the “Fold Reduction … to WT (Kd)” value stood at 2.08 fold. Also, in the assay with human CD7 on cells [2], the FACS binding came out at 0.002.

B8: 7-PP-10 (Fab, V domains shown)
VH: QVQLQESGAELVKPGASVKLSCKASGYTFTSYWMHWVKQRPGQGLEWIGKINPSNGRTNYNEKFKSKATLTVDKSSSTAYMQLSSLTSEDSAVYYCARGGVYYDGYYAALDYWGQGTTVTVSS
VL: DIELTQSPATLSVTPGDSVSLSCRASQSISNNLHWYQQKSHESPRLLIKSASQSISGIPSRFSGSGSGTDFTLSINSVETEDFGMYFCQQSNSWPYTFGGGTKLEIKR
As for B8, the “FACS fold reduction compared to PP WT” value with human CD7 on cells [1] worked out at 628 fold. In the assay with human CD7 on cells [2], this molecule came in with an FACS binding of 335.

B9: CD7-PP-7 CD7 binding arm (Fab, V domains shown)
VH: QVQLQESGAELVKPGASVKLSCKASGYTFTSYWMHWVKQRPGQGLEWIGKINPSNGGTNYNEKFKSKATLTVDKSSSTAYMQLSSLTSEDSAVYYCARGGVYYDLYYAALDYWGQGTTVTVSS
VL: DIELTQSPATLSVTPGDSVSLSCRASQSISNNLHWYQQKSHESPRLLIKSASQSISGIPSRFSGSGSGTDFTLSINSVETEDFGMYFCQQSNSWPYTFGGGTKLEIKR
notes: Heavy chain Arg57Gly/Tyr108Ala
The molecule B9 showed a Kd with human CD7 [3] of 541 nM. The “FACS fold reduction compared to PP WT” value in the assay with human CD7 on cells [1] came to 502 fold. Besides, the “Fold Reduction … to PP WT (Kd)” value with human CD7 [4] stood at 152 fold. Moreover, the “Fold Reduction … to WT (Kd)” value in the assay with human CD7 [5] was 206 fold. For the same molecule, in the assay with human CD7 on cells [2], the FACS binding amounted to 267.

B10: CD7-PP-6 binding arm (Fab, V domains shown)
VH: QVQLQESGAELVKPGASVKLSCKASGYTFTSYWMHWVKQRPGQGLEWIGKINPSNGRTNYNEKFKSKATLTVDKSSSTAYMQLSSLTSEDSAVYYCARGGVYYALYYYALDYWGQGTTVTVSS
VL: DIELTQSPATLSVTPGDSVSLSCRASQSISNNLHWYQQKSHESPRLLIKSASQSISGIPSRFSGSGSGTDFTLSINSVETEDFGMYFCQQSNSWPYTFGGGTKLEIKR
notes: Heavy chain Asp104Ala
Consider B10, for which, in the assay with human CD7 [3], the equilibrium dissociation constant (Kd) stood at 45.2 nM. Further, the “FACS fold reduction compared to PP WT” value with human CD7 on cells [1] came to 18.3 fold. In addition, the “Fold Reduction … to PP WT (Kd)” value in the assay with human CD7 [4] stood at 12.7 fold. In the assay with human CD7 [5], the “Fold Reduction … to WT (Kd)” value turned out to be 17.2 fold. In addition, in the assay with human CD7 on cells [2], the FACS binding turned out to be 9.76.

B11: CD7-PP-2 CD7 binding arm (Fab, V domains shown)
VH: QVQLQESGAELVKPGASVKLSCKASGYTFTSYWMHWVKQRPGQGLEWIGKINPSNGGTNYNEKFKSKATLTVDKSSSTAYMQLSSLTSEDSAVYYCARGGVYYDLYYYALDYWGQGTTVTVSS
VL: DIELTQSPATLSVTPGDSVSLSCRASQSISNNLHWYQQKSHESPRLLIKSASQSISGIPSRFSGSGSGTDFTLSINSVETEDFGMYFCQQSNSWPYTFGGGTKLEIKR
notes: Heavy chain Arg57Gly
For B11, the Kd in the assay with human CD7 [3] was 75.7 nM. In addition, the “FACS fold reduction compared to PP WT” value in the assay with human CD7 on cells [1] was found to be 64.9 fold. The “Fold Reduction … to PP WT (Kd)” value in the assay with human CD7 [4] worked out at 21.3 fold. Also, in the assay with human CD7 [5], the “Fold Reduction … to WT (Kd)” value was 28.8 fold. The FACS binding in the assay with human CD7 on cells [2] came out at 34.6.
